Source: patent US20230203559A1, “METHOD FOR QUANTIFYING ETHANOLAMINE PHOSPHATE, OXIDOREDUCTASE FOR QUANTIFICATION, QUANTIFICATION COMPOSITION, QUANTIFICATION KIT, SENSOR CHIP, AND SENSOR” (KIKKOMAN CORPORATION, priority 2020, published 2023)

Assays:
[1] = Verification of EAP to EA conversion reaction by ALP, detected with LrHP (4-AA/TOOS/POD, absorbance at 555 nm); format: biochemical; conditions: 1 mM EAP, LrHP final 25 pg/ml, pH 8.0, 300 seconds
Protocol: A reagent for activity measurement of the following composition was prepared.
A sample containing 1 mM EA was mixed with the reaction reagent (pH 8.0) shown in Table 2 in a 1.5 ml microtube at 4° C. 2 μl of ALP (so that the final concentration is 5 U/ml) was added thereto and incubated at 37° C. for 5 minutes. 20 μl of LrHP (so that the final concentration is 25 pg/ml) was added thereto, mixed by pipetting, transferred to a cuvette, and immediately set in a spectrophotometer (U-3900, manufactured by Hitachi High-Tech Science Corporation), and the absorbance at 555 nm was measured over time for 300 seconds.
Similarly, a sample containing 1 mM EAP was used, and 2 μl of alkaline phosphatase (ALP) or water was added to the reaction reagent (pH 8.0) (so that the final concentration is 5 U/ml) and incubated at 37° C. for 5 minutes. Next, 20 μl of LrHP (so that the final concentration is 25 pg/ml) was added thereto, mixed by pipetting, transferred to a cuvette, and immediately set in a spectrophotometer, and the absorbance at 555 nm was measured over time for 300 seconds.
The time immediately after the addition of LrHP is set to 0 seconds from the start of the measurement. […] This linear increase in absorbance was similar to the tendency to increase in the case where EA was directly used as a substrate instead of acting phosphatase on EAP.

[2] = Measurement of EAP combined with ALP and LrHP in plasma model solution containing contaminating amines; format: biochemical
Protocol: The reaction reagent (pH 8.0) shown in Table 2 was mixed in a 1.5 ml microtube at 4° C. and incubated at 37° C. for 2 minutes. In this case, 47 μl of LrHP was added (so that the final concentration is 1 mg/ml). […] The measurement was paused, 10 μl of alkaline phosphatase (25 U/ml) was added to the cuvette, mixed by pipetting, and immediately set in a spectrophotometer, and the absorbance at 555 nm was measured over time for 500 seconds.

B1: LrHP: hypothetical protein (GenBank ID CDS02610.1), amino acid sequence SEQ ID NO: 11, derived from Lichtheimia ramosa; oxidase acting on EA (protein, listed as Lichtheimia ramosa)
chain: MSSSPIKPYPLDPLTADEIRRAAALIRETRGQDTTYVFNSLTLKEPSKQQMMSYLGWTNSPSHPKPVTIDREVFAVLIDRPSGLVHEMTVNLDKNQVTRWNKVEGRQPTVNVFEMLEAEREILKDERVKEQCRQLGINDMSMVFADPWGVGYHEIKGKRLVQALMYARTSPDDNQYAHPLDFNPLYDVNAKKVIDIIVSKRRNSSFDRPVIPMANHHFLPEHLGQDRLRKDIKPIEITQPQGVSFSIRDGHQLHWQKWDMHLSFNYREGLVINNLSYRDMDGTVRPIIYRMSLSEMVVPYANPYKPYNHKMAFDVGEYGLGNLTNSLELGCDCVGKICYLDATLSDLNGDPWQIPNAICIHEEDTGLLFKHTDYRTGKAHSARSRRLVISHIVTAANYDYGLYYYFYQDGTIQYEVKATGELNTQVLAADEDAAPYGTIVAPQVDAQHHQHLFSMRIDPMVDGPNNSVAEVDVVASDLPVGHPHNSIGNSFYPVTKVFNTTDEAKTMASIERHRSWKIINENKIHPYAKQPVGFKMMAHPTPPLLPKPGSIVYERAMFASKTLWVTPYNEEQRYPGGFYCYQSEPSENLGLPQWTKETQNVRDTDIVCWLNFGITHIPRVEDFPIMPIETCGVMLKPVNFFLGNPGIDIPPSTRQSTKSAYATEATCCRKNNL
Q: Which “change in absorbance at 555 nm (EAP oxidization activity)” value ([1]; ALP added (final 5 U/ml, 37° C., 5 minutes)) does the source give for B1 here?
A: The value was “increase in absorbance with time was observed”.

Q: What about the “change in absorbance at 555 nm (EAP oxidization activity)” value ([1]; ALP not added) of the same molecule?
A: Its value is “no change in absorbance was observed”.

Q: And the “elimination of EA in the sample” value ([2]; LrHP final 1 mg/ml, EA 10.4 μM, β-alanine 29 μM, taurine 39.5 μM, EAP 1.5 μM, after 500 seconds)?
A: Its value is “the EA in the sample was exhausted”.

Q: What about the “change in absorbance at 555 nm after 500 seconds” value ([2]; water added instead of ALP, final EAP 1.5 μM) of the same molecule?
A: Its value is “No change in absorbance occurred”.
